Experimental data as given in PMC5787804 (2017).
Where no end group is shown, it is not given here. Side-chain parts run from the residue outwards. silicon chip = not defined here

B1: Orai1-NT 70–91 (peptide)
peptide: SMQALSWRKLYLSRAKLKASSRC
modifications: added C-terminal cysteine for site-specific coupling; immobilized on silicon chips via NHS-PEG27-maleimide linkers

Key:
[1] = target: Orai1-L2 (aa 136–186, mutation C143G) (human, UniProt Q96D31 136-186, C143G, conjugated to amino-functionalized AFM cantilever tips via a flexible NHS-PEG18-acetal cross-linker); assay: AFM single-molecule force spectroscopy
Orai1-L2 (aa 136–186, mutation C143G), sequence (Q96D31 136-186 C143G): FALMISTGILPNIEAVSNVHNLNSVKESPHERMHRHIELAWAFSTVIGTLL

[2] = target: Orai3-L2 (aa 111–161, mutation C118G) (human, UniProt Q9BRQ5 111-161, C118G, conjugated to amino-functionalized AFM cantilever tips via a flexible NHS-PEG18-acetal cross-linker); assay: AFM single-molecule force spectroscopy

Binder | koff [1] [s⁻¹] | koff [2] [s⁻¹]
LYLSRAKLKASSRC([NHS‑PEG27‑maleimide-silicon chip]) (reading uncertain) [Orai1-NT 79–91] | 0.13 | 0.09
B1 | 1.9 | 0.23
